Data from article PMC10786891, “Massively parallel profiling of RNA-targeting CRISPR-Cas13d”.
Substitutions are numbered along the chain they refer to. Names and notes keep the numbering of the source.

T1: EsCas13d, nuclease-dead (Eubacterium siraeum, UniProt B0MS50, R295A;H300A;R849A;H854A)
T1 sequence: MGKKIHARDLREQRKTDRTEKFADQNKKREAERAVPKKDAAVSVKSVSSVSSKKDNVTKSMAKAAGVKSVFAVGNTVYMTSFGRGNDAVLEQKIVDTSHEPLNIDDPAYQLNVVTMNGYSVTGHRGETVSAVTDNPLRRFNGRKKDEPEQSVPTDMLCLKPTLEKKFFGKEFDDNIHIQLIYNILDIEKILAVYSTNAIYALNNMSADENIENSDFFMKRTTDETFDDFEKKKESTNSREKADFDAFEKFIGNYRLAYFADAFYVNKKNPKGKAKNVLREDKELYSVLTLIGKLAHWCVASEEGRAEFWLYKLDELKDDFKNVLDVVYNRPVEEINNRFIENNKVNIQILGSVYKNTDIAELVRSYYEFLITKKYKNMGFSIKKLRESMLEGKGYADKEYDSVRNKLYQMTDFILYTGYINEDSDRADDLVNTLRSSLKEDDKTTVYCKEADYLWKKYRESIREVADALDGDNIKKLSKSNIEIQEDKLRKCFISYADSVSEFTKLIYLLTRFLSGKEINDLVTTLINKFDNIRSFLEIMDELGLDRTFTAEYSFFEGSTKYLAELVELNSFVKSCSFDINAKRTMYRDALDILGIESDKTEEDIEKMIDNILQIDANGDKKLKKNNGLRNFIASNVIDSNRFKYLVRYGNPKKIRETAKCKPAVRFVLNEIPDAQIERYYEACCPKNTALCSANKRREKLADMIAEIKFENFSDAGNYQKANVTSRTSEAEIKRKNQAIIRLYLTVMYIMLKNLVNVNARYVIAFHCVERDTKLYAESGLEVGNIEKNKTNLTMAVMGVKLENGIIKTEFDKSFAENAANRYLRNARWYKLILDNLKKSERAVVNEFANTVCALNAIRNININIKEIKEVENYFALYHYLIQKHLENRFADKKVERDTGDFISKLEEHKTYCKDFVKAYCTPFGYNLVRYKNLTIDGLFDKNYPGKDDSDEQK

B1: target 2 MT 5'PFS GUA 3'PFS CUU (mixed)
RNA 1: CACCCGUGCAAAAUUGCAGGGGUCUAAAACCUUCUCCAAAUUGUUUCAUCCU
RNA 2: GGGAAUGGAUCCACAUCUACGAAUUCGUAAGGAUGAAACAAUUUGGAGAAGCUUAGAUCGGAAGAGCACACGU
B2: target 2 MT 5'PFS AUU 3'PFS AUU (mixed)
RNA 1: B1 RNA 1
RNA 2: B1 RNA 2 with G27A, A29U, C52A
B3: target 2 MT 5'PFS UUA 3'PFS UAA (mixed)
RNA 1: B1 RNA 1
RNA 2: B1 RNA 2 with G27U, C52U, U53A, U54A
B4: target 2 MT 5'PFS GUC 3'PFS UCG (mixed)
RNA 1: B1 RNA 1
RNA 2: B1 RNA 2 with A29C, C52U, U53C, U54G
B5: target 2 MT 5'PFS GGU 3'PFS CCA (mixed)
RNA 1: B1 RNA 1
RNA 2: B1 RNA 2 with U28G, A29U, U53C, U54A
B6: target 2 MT 5'PFS GUA 3'PFS CUG (mixed)
RNA 1: B1 RNA 1
RNA 2: B1 RNA 2 with U54G
B7: target 2 MT 5'PFS UUG 3'PFS CCA (mixed)
RNA 1: B1 RNA 1
RNA 2: B1 RNA 2 with G27U, A29G, U53C, U54A
B8: target 2 MT 5'PFS AUU 3'PFS ACU (mixed)
RNA 1: B1 RNA 1
RNA 2: B1 RNA 2 with G27A, A29U, C52A, U53C
B9: target 2 MT 5'PFS AUU 3'PFS ACG (mixed)
RNA 1: B1 RNA 1
RNA 2: B1 RNA 2 with G27A, A29U, C52A, U53C, U54G
B10: target 2 MT 5'PFS CUC 3'PFS CAG (mixed)
RNA 1: B1 RNA 1
RNA 2: B1 RNA 2 with G27C, A29C, U53A, U54G
B11: target 2 MT 5'PFS GAC 3'PFS CAG (mixed)
RNA 1: B1 RNA 1
RNA 2: B1 RNA 2 with U28A, A29C, U53A, U54G
B12: target 2 MT 5'PFS GAC 3'PFS CAU (mixed)
RNA 1: B1 RNA 1
RNA 2: B1 RNA 2 with U28A, A29C, U53A
B13: target 2 MT 5'PFS GUA 3'PFS CUA (mixed)
RNA 1: B1 RNA 1
RNA 2: B1 RNA 2 with U54A
B14: target 2 MT 5'PFS GUC 3'PFS UCU (mixed)
RNA 1: B1 RNA 1
RNA 2: B1 RNA 2 with A29C, C52U, U53C
B15: target 2 MT 5'PFS UGG 3'PFS AAA (mixed)
RNA 1: B1 RNA 1
RNA 2: B1 RNA 2 with G27U, U28G, A29G, C52A, U53A, U54A
B16: target 2 MT 5'PFS GAC 3'PFS CAA (mixed)
RNA 1: B1 RNA 1
RNA 2: B1 RNA 2 with U28A, A29C, U53A, U54A
B17: target 2 MT 5'PFS GAG 3'PFS AAC (mixed)
RNA 1: B1 RNA 1
RNA 2: B1 RNA 2 with U28A, A29G, C52A, U53A, U54C
B18: target 2 MT 5'PFS GAG 3'PFS AAA (mixed)
RNA 1: B1 RNA 1
RNA 2: B1 RNA 2 with U28A, A29G, C52A, U53A, U54A
B19: target 2 MT 5'PFS UGA 3'PFS CAG (mixed)
RNA 1: B1 RNA 1
RNA 2: B1 RNA 2 with G27U, U28G, U53A, U54G
B20: target 2 MT 5'PFS GAA 3'PFS UUU (mixed)
RNA 1: B1 RNA 1
RNA 2: B1 RNA 2 with U28A, C52U
B21: target 2 MT 5'PFS AUU 3'PFS ACA (mixed)
RNA 1: B1 RNA 1
RNA 2: B1 RNA 2 with G27A, A29U, C52A, U53C, U54A
B22: target 2 MT 5'PFS GAG 3'PFS AAG (mixed)
RNA 1: B1 RNA 1
RNA 2: B1 RNA 2 with U28A, A29G, C52A, U53A, U54G
B23: target 2 MT 5'PFS AAG 3'PFS AAA (mixed)
RNA 1: B1 RNA 1
RNA 2: B1 RNA 2 with G27A, U28A, A29G, C52A, U53A, U54A
B24: target 2 MT 5'PFS GAG 3'PFS AAU (mixed)
RNA 1: B1 RNA 1
RNA 2: B1 RNA 2 with U28A, A29G, C52A, U53A
B25: target 2 MT 5'PFS GUC 3'PFS UCA (mixed)
RNA 1: B1 RNA 1
RNA 2: B1 RNA 2 with A29C, C52U, U53C, U54A
B26: target 2 MT 5'PFS GCG 3'PFS AAA (mixed)
RNA 1: B1 RNA 1
RNA 2: B1 RNA 2 with U28C, A29G, C52A, U53A, U54A
B27: target 2 MT 5'PFS AUU 3'PFS ACC (mixed)
RNA 1: B1 RNA 1
RNA 2: B1 RNA 2 with G27A, A29U, C52A, U53C, U54C
B28: target 2 MT 5'PFS CUC 3'PFS CAA (mixed)
RNA 1: B1 RNA 1
RNA 2: B1 RNA 2 with G27C, A29C, U53A, U54A
B29: target 2 MT 5'PFS GUC 3'PFS UCC (mixed)
RNA 1: B1 RNA 1
RNA 2: B1 RNA 2 with A29C, C52U, U53C, U54C
B30: target 2 MT 5'PFS CGU 3'PFS CCG (mixed)
RNA 1: B1 RNA 1
RNA 2: B1 RNA 2 with G27C, U28G, A29U, U53C, U54G
B31: target 2 MT 5'PFS GUA 3'PFS CUC (mixed)
RNA 1: B1 RNA 1
RNA 2: B1 RNA 2 with U54C
B32: target 2 MT 5'PFS CAG 3'PFS ACU (mixed)
RNA 1: B1 RNA 1
RNA 2: B1 RNA 2 with G27C, U28A, A29G, C52A, U53C
B33: target 2 MT 5'PFS GGU 3'PFS CCG (mixed)
RNA 1: B1 RNA 1
RNA 2: B1 RNA 2 with U28G, A29U, U53C, U54G
B34: target 2 MT 5'PFS GAC 3'PFS CAC (mixed)
RNA 1: B1 RNA 1
RNA 2: B1 RNA 2 with U28A, A29C, U53A, U54C
B35: target 1 C7A,U10C (mixed)
RNA 1: CACCCGUGCAAAAAUGCAGGGGUCUAAAACUGAGCGGAUAACCUCUCUAUGG
RNA 2: GGGAAUGGAUCCACAUCUACGAAUUCGUACCAUAGAGAGGUCAUACGCUCACCGAGAUCGGAAGAGCACACGU
B36: target 1 insC 3' of 22,insC 3' of 5 (mixed)
RNA 1: B35 RNA 1
RNA 2: GGGAAUGGAUCCACAUCUACGAAUUCGUACCCAUAGAGAGGUUAUCCGCCUCACCGAGAUCGGAAGAGCACACGU
B37: target 1 insU 3' of 20,insC 3' of 19 (mixed)
RNA 1: B35 RNA 1
RNA 2: GGGAAUGGAUCCACAUCUACGAAUUCGUACCAUUCAGAGAGGUUAUCCGCUCACCGAGAUCGGAAGAGCACACGU
B38: target 1 U11A,G17U (mixed)
RNA 1: B35 RNA 1
RNA 2: B35 RNA 2 with G35U, U41A, C42U, A45C

target: T1, EsCas13d, nuclease-dead; test: crRNA (strand 1, pre-loaded); Mg2+; 40 mM Tris-HCl pH 7.5, 150 mM NaCl, 6 mM MgCl2, 1 mM DTT, 0.1% Tween-20, 0.2 mg/ml BSA; 25 C; 10 min per concentration, then washed; conditions: tags: His6-TwinStrep-SUMO cleaved; N-terminal SNAP kept (SNAP-Surface 488); label: 3' end held by stalled T7 RNA polymerase

Row | Binder | Kd
1 | B1 | 10.2 ± 1 nM
2 | B2 | 5.5 ± 0.4 nM
3 | B3 | 17 ± 4 nM
4 | B4 | 28 ± 6 nM
5 | B5 | 24 ± 5 nM
6 | B6 | 11.1 ± 1.2 nM
7 | B7 | 37 ± 10 nM
8 | B8 | 10.7 ± 1.3 nM
9 | B9 | 9 ± 1 nM
10 | B10 | 1.93 ± 0.21 nM
11 | B11 | 17 ± 4 nM
12 | B12 | 7.4 ± 1.2 nM
13 | B13 | 6.5 ± 0.6 nM
14 | B14 | 25.4 ± 3.3 nM
15 | B15 | 3.3 ± 0.4 nM
16 | B16 | 6.2 ± 1.2 nM
17 | B17 | 6.1 ± 1 nM
18 | B18 | 4.1 ± 0.6 nM
19 | B19 | 6.6 ± 0.7 nM

Row | Binder | Kd
20 | B20 | 24 ± 4 nM
21 | B21 | 9.5 ± 2 nM
22 | B22 | 5.6 ± 0.5 nM
23 | B23 | 3.7 ± 0.7 nM
24 | B24 | 5.6 ± 0.7 nM
25 | B25 | 17 ± 5 nM
26 | B26 | 9.9 ± 2.3 nM
27 | B27 | 15.2 ± 3.1 nM
28 | B28 | 1.72 ± 0.2 nM
29 | B29 | 42 ± 6 nM
30 | B30 | ~40 nM
31 | B31 | 15.5 ± 2.6 nM
32 | B32 | 6.2 ± 2.2 nM
33 | B33 | 17.4 ± 1.8 nM
34 | B34 | 12.9 ± 2.4 nM
35 | B35 | 13.6 ± 0.7 nM
36 | B36 | 60 ± 30 nM
37 | B37 | 50 ± 17 nM
38 | B38 | 84 ± 29 nM
